From patent publication US20130336885A1 (Genentech, published 2013)

How the values were obtained:
[1] = target: T1, gD epitope-tagged mouse LgR5 expressed on stably transfected 293 cells (mouse, UniProt Q9Z1P4 22-907); experiment: FACS on 293 cells stably transfected with gD epitope-tagged LgR5, 10 ug/ml antibody, R-Phycoerythrin goat anti-human detection
T1 construct: also called gD-tagged mouse LgR5
T1 sequence: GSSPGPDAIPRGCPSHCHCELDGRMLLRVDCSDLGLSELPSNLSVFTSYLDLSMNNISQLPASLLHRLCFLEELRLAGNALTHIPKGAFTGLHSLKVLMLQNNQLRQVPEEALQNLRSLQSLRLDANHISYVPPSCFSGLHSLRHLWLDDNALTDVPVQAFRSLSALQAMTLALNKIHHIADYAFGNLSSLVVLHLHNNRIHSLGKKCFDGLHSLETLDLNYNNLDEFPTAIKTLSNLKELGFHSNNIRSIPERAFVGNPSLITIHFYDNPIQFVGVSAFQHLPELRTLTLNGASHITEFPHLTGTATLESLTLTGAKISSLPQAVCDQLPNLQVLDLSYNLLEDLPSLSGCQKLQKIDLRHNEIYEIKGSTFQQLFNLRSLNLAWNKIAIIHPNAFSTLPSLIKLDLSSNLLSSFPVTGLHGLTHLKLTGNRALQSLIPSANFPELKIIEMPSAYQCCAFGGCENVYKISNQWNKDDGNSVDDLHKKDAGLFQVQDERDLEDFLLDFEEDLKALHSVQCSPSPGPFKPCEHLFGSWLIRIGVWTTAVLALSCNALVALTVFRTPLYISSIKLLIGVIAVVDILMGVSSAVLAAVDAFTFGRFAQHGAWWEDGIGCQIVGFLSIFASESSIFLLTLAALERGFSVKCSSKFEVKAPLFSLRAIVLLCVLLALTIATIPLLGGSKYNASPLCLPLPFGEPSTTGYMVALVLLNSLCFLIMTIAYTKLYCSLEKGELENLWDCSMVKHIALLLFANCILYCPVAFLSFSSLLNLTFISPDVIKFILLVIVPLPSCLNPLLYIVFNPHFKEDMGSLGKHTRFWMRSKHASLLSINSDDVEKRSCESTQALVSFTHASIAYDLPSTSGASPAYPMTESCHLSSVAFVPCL
Experimental: Monoclonal antibodies were tested to determine if they cross-react with LgR5 from species other than human. […] Residues that are identical among all four species are indicated by asterisks (*). […] YW353 antibody binds human and cynomolgus monkey LgR5, but not rat or mouse LgR5. Ch8E11 and hu8E11.v2 antibodies bind all four species of LgR5, although binding to rat LgR5 is not as strong as binding to human, cynomolgus monkey, or mouse LgR5. 2H6 antibody binds to human and mouse LgR5, and was not tested for binding to cynomolgus monkey or rat LgR5.

[2] = target: T2, gD epitope-tagged LgR5 22-123 (amino acids 22-123 of SEQ ID NO: 67) with a C-terminal GPI anchor on … (human, UniProt O75473 22-123, C-terminal GPI anchor); experiment: FACS on transiently transfected 293 cells
T2 sequence: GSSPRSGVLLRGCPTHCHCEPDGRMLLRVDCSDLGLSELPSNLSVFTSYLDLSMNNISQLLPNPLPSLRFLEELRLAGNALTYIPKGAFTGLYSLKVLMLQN

[3] = target: T3, gD epitope-tagged LgR5 22-323 (amino acids 22-323 of SEQ ID NO: 67) with a C-terminal GPI anchor on … (human, UniProt O75473 22-323, C-terminal GPI anchor); experiment: FACS on transiently transfected 293 cells
T3 sequence: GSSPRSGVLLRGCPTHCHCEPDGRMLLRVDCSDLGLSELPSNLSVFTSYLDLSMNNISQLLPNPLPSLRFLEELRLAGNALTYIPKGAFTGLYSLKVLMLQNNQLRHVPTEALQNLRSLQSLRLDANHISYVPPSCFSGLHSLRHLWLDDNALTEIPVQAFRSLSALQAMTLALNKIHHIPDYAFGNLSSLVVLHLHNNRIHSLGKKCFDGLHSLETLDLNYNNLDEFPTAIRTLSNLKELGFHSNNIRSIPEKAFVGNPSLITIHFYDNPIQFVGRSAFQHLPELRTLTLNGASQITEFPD

[4] = target: T4, gD epitope-tagged LgR5 424-907 (amino acids 424-907 of SEQ ID NO: 67) on transiently transfected 293 cells (human, UniProt O75473 424-907); experiment: FACS on transiently transfected 293 cells
T4 sequence: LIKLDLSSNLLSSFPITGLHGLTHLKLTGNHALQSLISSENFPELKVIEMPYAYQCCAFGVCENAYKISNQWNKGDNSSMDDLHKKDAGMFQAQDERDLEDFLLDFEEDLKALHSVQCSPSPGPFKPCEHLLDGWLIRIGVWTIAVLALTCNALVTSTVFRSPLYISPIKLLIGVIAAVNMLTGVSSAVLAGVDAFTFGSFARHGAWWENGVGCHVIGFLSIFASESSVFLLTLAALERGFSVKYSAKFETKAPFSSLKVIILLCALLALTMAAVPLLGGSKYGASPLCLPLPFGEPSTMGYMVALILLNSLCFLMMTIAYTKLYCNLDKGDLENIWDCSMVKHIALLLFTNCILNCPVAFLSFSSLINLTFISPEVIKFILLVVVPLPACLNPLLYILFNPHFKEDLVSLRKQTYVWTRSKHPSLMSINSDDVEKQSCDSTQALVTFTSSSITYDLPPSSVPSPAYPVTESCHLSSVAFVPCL

[5] = target: T5, human LgR5 ECD (amino acids 22-557 fused to His-Fc expressed in a baculovirus system, or amino acids 22-558 … (human, UniProt O75473 22-557)); experiment: SPR (BIAcore-3000), antibody captured by anti-human Fc, LgR5 ECD-Fc injected
T5 construct: not shown: C-terminal His-tagged Fc
T5 sequence: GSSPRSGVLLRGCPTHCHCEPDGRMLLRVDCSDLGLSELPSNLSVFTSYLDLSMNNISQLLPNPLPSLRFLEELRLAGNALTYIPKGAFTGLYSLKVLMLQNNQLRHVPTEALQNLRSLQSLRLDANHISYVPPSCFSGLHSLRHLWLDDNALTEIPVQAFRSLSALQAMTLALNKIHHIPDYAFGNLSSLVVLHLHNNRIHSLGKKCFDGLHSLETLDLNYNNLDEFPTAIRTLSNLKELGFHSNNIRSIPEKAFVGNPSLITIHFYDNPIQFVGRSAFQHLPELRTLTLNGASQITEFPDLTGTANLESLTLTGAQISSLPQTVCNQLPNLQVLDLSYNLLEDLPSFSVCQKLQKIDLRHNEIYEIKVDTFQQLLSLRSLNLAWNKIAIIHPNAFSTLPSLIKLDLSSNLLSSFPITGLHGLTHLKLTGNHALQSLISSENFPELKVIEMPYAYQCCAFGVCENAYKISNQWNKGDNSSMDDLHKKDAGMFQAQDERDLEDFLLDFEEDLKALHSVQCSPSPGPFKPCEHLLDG

[6] = target: T5, human LgR5 ECD (amino acids 22-557 …); experiment: BIAcore-3000 SPR, IgG captured on goat anti-human Fc, human LgR5 ECD-Fc injected, 25 C, 1:1 Langmuir model
Experimental: The affinity of each 8E11 IgG variant for human LgR5 was determined by surface plasmon resonance using a BIAcore™-3000. BIAcore™ research grade CMS chips were activated with 1-ethyl-3-(3-dimethylaminopropyl) carbodiimide (EDC) and N-hydroxysuccinimide (NHS) reagents according to the supplier's instructions. Goat anti-human Fc IgGs were coupled to the chips to achieve approximately 10,000 response units (RU) in each flow cell. Unreacted coupling groups were blocked with 1M ethanolamine. For kinetics measurements, anti-LGR5 antibodies were captured to achieve approximately 300 RU. Two-fold serial dilutions of human LgR5ECD (amino acids 22-557 fused to His-Fc expressed in a baculovirus system, or amino acids 22-558 fused to Fc expressed from CHO cells; 125 nM to 0.49 nM) were injected in HBS-P buffer (0.01M HEPES pH7.4, 0.15M NaCl, 0.005% surfactant P20) at 25° C. with a flow rate of 30 μl/min. Association rates (kₒₙ) and dissociation rates (koff) were calculated using a 1:1 Langmuir binding model (BIAcore™ Evaluation Software version 3.2). The equilibrium dissociation constant (Kd) was calculated as the ratio koff/kₒₙ.

B1: monoclonal antibody 2H6 (antibody, V domains shown)
VH: EVQLQQSGPELVKPGTSMKISCKASGYSFTGYTMNWVKQSHKNGLEWIGLINCYNGGTNYNQKFKGKATLTVDKSSSTAFMELLSLTSEDSAVYYCARGGSTMITPRFAYWGQGTLVTVSS
VL: DIVMTQSPSSLTVTAGEKVTMSCKSSQSLLNSGNQKNYLTWFQQKPGQPPKLLIYWASTRESGVPDRFTGSGSGTDFTLTISNVQAEDLAVYYCQNDYSFPFTFGQGTKVEIKR
notes: The variable domains are the same in both forms; also called m2H6; mu2H6
binding result [1]: binds
binding result [2]: no binding (tested: 10 µg/ml)
binding result [3]: no binding (tested: 10 µg/ml)
binding result [4]: no binding (tested: 10 µg/ml)
Kd [5]: 208 nM

B2: h8E11.v3 (antibody, V domains shown)
VH: EVQLVQSGAEVKKPGASVKVSCKASGYTFSAYWIEWVRQAPGQGLEWIGEILPGSDSTDYNEKFKVRVTITSDTSTSTVYLELSSLRSEDTAVYYCARGGHYGSLDYWGQGTLVTVSS
VL: DIVMTQSPDSLAVSLGERATINCRASESVDNYGNSFMHWYQQKPGQPPKLLIYLASNLESGVPDRFSGSGSRTDFTLTISSLQAEDVAVYYCQQNYEDPFTFGQGTKVEIKR
notes: VH CDR graft + 71S/78V; also called hu8E11.v3
Kd [6]: 4.73 nM
koff [6]: 0.00053 s⁻¹
kon [6]: 112000 M⁻¹ s⁻¹

B3: h8E11.v4 (antibody, V domains shown)
VH: EVQLVQSGAEVKKPGASVKVSCKASGYTFSAYWIEWVRQAPGQGLEWIGEILPGSDSTDYNEKFKVRATFTSDTSTSTVYLELSSLRSEDTAVYYCARGGHYGSLDYWGQGTLVTVSS
VL: DIVMTQSPDSLAVSLGERATINCRASESVDNYGNSFMHWYQQKPGQPPKLLIYLASNLESGVPDRFSGSGSRTDFTLTISSLQAEDVAVYYCQQNYEDPFTFGQGTKVEIKR
notes: VH CDR graft + 67A/69F/71S/78V; also called hu8E11.v4
Kd [6]: 3.63 nM
koff [6]: 0.000922 s⁻¹
kon [6]: 254000 M⁻¹ s⁻¹

B4: h8E11.v7 (antibody, V domains shown)
VH: EVQLVQSGAEVKKPGASVKVSCKASGYTFSAYWIEWVRQAPGQGLEWIGEILPGSDSTDYNEKFKVRVTITRDTSTSTAYLELSSLRSEDTAVYYCARGGHYGSLDYWGQGTLVTVSS
VL: DIVMTQSPDSLAVSLGERATINCRASESVDNYGNSFMHWYQQKPGQPPKLLIYLASNLESGVPDRFSGSGSRTDFTLTISSLQAEDVAVYYCQQNYEDPFTFGQGTKVEIKR
notes: VH CDR graft + 71R/78A; also called hu8E11.v7
Kd [6]: 22.1 nM
koff [6]: 0.00258 s⁻¹
kon [6]: 117000 M⁻¹ s⁻¹

B5: h8E11.v8 (antibody, V domains shown)
VH: EVQLVQSGAEVKKPGASVKVSCKASGYTFSAYWIEWVRQAPGQGLEWIGEILPGSDSTDYNEKFKVRVTITADTSTSTAYLELSSLRSEDTAVYYCARGGHYGSLDYWGQGTLVTVSS
VL: DIVMTQSPDSLAVSLGERATINCRASESVDNYGNSFMHWYQQKPGQPPKLLIYLASNLESGVPDRFSGSGSRTDFTLTISSLQAEDVAVYYCQQNYEDPFTFGQGTKVEIKR
notes: VH CDR graft + 71A/78A; also called hu8E11.v8
Kd [6]: 8.97 nM
koff [6]: 0.00217 s⁻¹
kon [6]: 242000 M⁻¹ s⁻¹

B6: h8E11.v5 (antibody, V domains shown)
VH: EVQLVQSGAEVKKPGASVKVSCKASGYTFSAYWIEWVRQAPGQGLEWIGEILPGSDSTDYNEKFKVRVTITRDTSTSTAYLELSSLRSEDTAVYYCARGGHYGSLDYWGQGTLVTVSS
VL: DIVMTQSPDSLAVSLGERATINCRASESVDNYGNSFMHWYQQKPGQPPKLLIYLASNLESGVPDRFSGSGSGTDFTLTISSLQAEDVAVYYCQQNYEDPFTFGQGTKVEIKR
notes: VH CDR graft + 71R/78A; also called hu8E11.v5
Kd [6]: 14.3 nM
koff [6]: 0.000933 s⁻¹
kon [6]: 65000 M⁻¹ s⁻¹

B7: h8E11.v6 (antibody, V domains shown)
VH: EVQLVQSGAEVKKPGASVKVSCKASGYTFSAYWIEWVRQAPGQGLEWIGEILPGSDSTDYNEKFKVRVTITADTSTSTAYLELSSLRSEDTAVYYCARGGHYGSLDYWGQGTLVTVSS
VL: DIVMTQSPDSLAVSLGERATINCRASESVDNYGNSFMHWYQQKPGQPPKLLIYLASNLESGVPDRFSGSGSGTDFTLTISSLQAEDVAVYYCQQNYEDPFTFGQGTKVEIKR
notes: VH CDR graft + 71A/78A; also called hu8E11.v6
Kd [6]: 14.1 nM
koff [6]: 0.00202 s⁻¹
kon [6]: 143000 M⁻¹ s⁻¹

B8: h8E11.v1 (antibody, V domains shown)
VH: EVQLVQSGAEVKKPGASVKVSCKASGYTFSAYWIEWVRQAPGQGLEWIGEILPGSDSTDYNEKFKVRVTITSDTSTSTVYLELSSLRSEDTAVYYCARGGHYGSLDYWGQGTLVTVSS
VL: DIVMTQSPDSLAVSLGERATINCRASESVDNYGNSFMHWYQQKPGQPPKLLIYLASNLESGVPDRFSGSGSGTDFTLTISSLQAEDVAVYYCQQNYEDPFTFGQGTKVEIKR
notes: VH CDR graft + 71S/78V; also called hu8E11.v1
Kd [6]: 5.05 nM
koff [6]: 0.000772 s⁻¹
kon [6]: 153000 M⁻¹ s⁻¹
